In IntAct's records for PubMed 25910212:

B1: U4/U6 small nuclear ribonucleoprotein Prp31 (Homo sapiens), Q8WWY3 (parent)
chain: MSLADELLADLEEAAEEEEGGSYGEEEEEPAIEDVQEETQLDLSGDSVKTIAKLWDSKMFAEIMMKIEEYISKQAKASEVMGPVEAAPEYRVIVDANNLTVEIENELNIIHKFIRDKYSKRFPELESLVPNALDYIRTVKELGNSLDKCKNNENLQQILTNATIMVVSVTASTTQGQQLSEEELERLEEACDMALELNASKHRIYEYVESRMSFIAPNLSIIIGASTAAKIMGVAGGLTNLSKMPACNIMLLGAQRKTLSGFSSTSVLPHTGYIYHSDIVQSLPPDLRRKAARLVAAKCTLAARVDSFHESTEGKVGYELKDEIERKFDKWQEPPPVKQVKPLPAPLDGQRKKRGGRRYRKMKERLGLTEIRKQANRMSFGEIEEDAYQEDLGFSLGHLGKSGSGRVRQTQVNEATKARISKTLQRTLQKQSVVYGGKSTIRDRSSGTASSVAFTPLQGLEIVNPQAAEKKVAEANQKYFSSMAEFLKVKGEKSGLMST

Variants of: B1
Details: with HNRNPK

effect of a mutation on the interaction | Variant
with no effect | MSLADELLADLEEAAEEEEGGSYGEEEEEPAIEDVQEETQLDLSGDSVKTIAKLWDSKMFAEIMMKIEEYISKQAKASEVMGPVEAAPEYRVIVDANNLTVEIENEVNIIHKFIRDKYSKRFPELESLVPNALDYIRTVKELGNSLDKCKNNENLQQILTNATIMVVSVTASTTQGQQLSEEELERLEEACDMALELNASKHRIYEYVESRMSFIAPNLSIIIGASTAAKIMGVAGGLTNLSKMPACNIMLLGAQRKTLSGFSSTSVLPHTGYIYHSDIVQSLPPDLRRKAARLVAAKCTLAARVDSFHESTEGKVGYELKDEIERKFDKWQEPPPVKQVKPLPAPLDGQRKKRGGRRYRKMKERLGLTEIRKQANRMSFGEIEEDAYQEDLGFSLGHLGKSGSGRVRQTQVNEATKARISKTLQRTLQKQSVVYGGKSTIRDRSSGTASSVAFTPLQGLEIVNPQAAEKKVAEANQKYFSSMAEFLKVKGEKSGLMST [L107V]

Variants of: B1
Details: with mdfi_human MDFI

effect of a mutation on the interaction | Variant
with no effect | MSLADELLADLEEAAEEEEGGSYGEEEEEPAIEDVQEETQLDLSGDSVKTIAKLWDSKMFAEIMMKIEEYISKQAKASEVMGPVEAAPEYRVIVDANNLTVEIENEVNIIHKFIRDKYSKRFPELESLVPNALDYIRTVKELGNSLDKCKNNENLQQILTNATIMVVSVTASTTQGQQLSEEELERLEEACDMALELNASKHRIYEYVESRMSFIAPNLSIIIGASTAAKIMGVAGGLTNLSKMPACNIMLLGAQRKTLSGFSSTSVLPHTGYIYHSDIVQSLPPDLRRKAARLVAAKCTLAARVDSFHESTEGKVGYELKDEIERKFDKWQEPPPVKQVKPLPAPLDGQRKKRGGRRYRKMKERLGLTEIRKQANRMSFGEIEEDAYQEDLGFSLGHLGKSGSGRVRQTQVNEATKARISKTLQRTLQKQSVVYGGKSTIRDRSSGTASSVAFTPLQGLEIVNPQAAEKKVAEANQKYFSSMAEFLKVKGEKSGLMST [L107V]

Variants of: B1
Details: with ZNF250, P15622-3
Chain of ZNF250, P15622-3 (P15622 other isoform, or with tags, fused parts or gaps): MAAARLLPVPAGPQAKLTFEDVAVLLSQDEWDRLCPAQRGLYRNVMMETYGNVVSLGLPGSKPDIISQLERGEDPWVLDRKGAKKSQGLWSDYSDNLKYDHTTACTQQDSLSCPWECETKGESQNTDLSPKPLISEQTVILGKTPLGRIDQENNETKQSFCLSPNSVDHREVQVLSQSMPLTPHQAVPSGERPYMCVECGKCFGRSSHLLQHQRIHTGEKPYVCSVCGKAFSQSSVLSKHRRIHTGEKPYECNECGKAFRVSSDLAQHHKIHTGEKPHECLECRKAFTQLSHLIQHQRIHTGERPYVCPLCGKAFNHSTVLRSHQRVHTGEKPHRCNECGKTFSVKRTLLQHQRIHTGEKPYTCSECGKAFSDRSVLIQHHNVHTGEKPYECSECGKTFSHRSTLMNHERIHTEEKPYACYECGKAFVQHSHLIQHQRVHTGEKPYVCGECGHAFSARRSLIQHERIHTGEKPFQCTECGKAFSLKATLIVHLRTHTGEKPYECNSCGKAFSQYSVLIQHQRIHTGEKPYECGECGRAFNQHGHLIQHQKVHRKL

effect of a mutation on the interaction | Variant
with no effect | MSLADELLADLEEAAEEEEGGSYGEEEEEPAIEDVQEETQLDLSGDSVKTIAKLWDSKMFAEIMMKIEEYISKQAKASEVMGPVEAAPEYRVIVDANNLTVEIENEVNIIHKFIRDKYSKRFPELESLVPNALDYIRTVKELGNSLDKCKNNENLQQILTNATIMVVSVTASTTQGQQLSEEELERLEEACDMALELNASKHRIYEYVESRMSFIAPNLSIIIGASTAAKIMGVAGGLTNLSKMPACNIMLLGAQRKTLSGFSSTSVLPHTGYIYHSDIVQSLPPDLRRKAARLVAAKCTLAARVDSFHESTEGKVGYELKDEIERKFDKWQEPPPVKQVKPLPAPLDGQRKKRGGRRYRKMKERLGLTEIRKQANRMSFGEIEEDAYQEDLGFSLGHLGKSGSGRVRQTQVNEATKARISKTLQRTLQKQSVVYGGKSTIRDRSSGTASSVAFTPLQGLEIVNPQAAEKKVAEANQKYFSSMAEFLKVKGEKSGLMST [L107V]

Variants of: B1
Details: with zn587_human ZNF587, Q96SQ5

effect of a mutation on the interaction | Variant
with no effect | MSLADELLADLEEAAEEEEGGSYGEEEEEPAIEDVQEETQLDLSGDSVKTIAKLWDSKMFAEIMMKIEEYISKQAKASEVMGPVEAAPEYRVIVDANNLTVEIENEVNIIHKFIRDKYSKRFPELESLVPNALDYIRTVKELGNSLDKCKNNENLQQILTNATIMVVSVTASTTQGQQLSEEELERLEEACDMALELNASKHRIYEYVESRMSFIAPNLSIIIGASTAAKIMGVAGGLTNLSKMPACNIMLLGAQRKTLSGFSSTSVLPHTGYIYHSDIVQSLPPDLRRKAARLVAAKCTLAARVDSFHESTEGKVGYELKDEIERKFDKWQEPPPVKQVKPLPAPLDGQRKKRGGRRYRKMKERLGLTEIRKQANRMSFGEIEEDAYQEDLGFSLGHLGKSGSGRVRQTQVNEATKARISKTLQRTLQKQSVVYGGKSTIRDRSSGTASSVAFTPLQGLEIVNPQAAEKKVAEANQKYFSSMAEFLKVKGEKSGLMST [L107V]

Variants of: B1
Details: with KRT40, Q6A162
Chain of KRT40, Q6A162 (Q6A162 whole entry): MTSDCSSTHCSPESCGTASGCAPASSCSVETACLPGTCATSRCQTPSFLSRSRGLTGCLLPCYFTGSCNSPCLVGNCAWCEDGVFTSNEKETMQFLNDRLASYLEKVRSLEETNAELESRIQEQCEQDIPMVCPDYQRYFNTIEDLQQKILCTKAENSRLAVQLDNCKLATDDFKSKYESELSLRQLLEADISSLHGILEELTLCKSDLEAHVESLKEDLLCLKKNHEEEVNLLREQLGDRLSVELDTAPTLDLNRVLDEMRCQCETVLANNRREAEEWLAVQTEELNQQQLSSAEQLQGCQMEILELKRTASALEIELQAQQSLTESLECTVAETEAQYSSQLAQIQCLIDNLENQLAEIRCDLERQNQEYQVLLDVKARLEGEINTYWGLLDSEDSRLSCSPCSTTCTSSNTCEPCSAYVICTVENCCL

effect of a mutation on the interaction | Variant
with no effect | MSLADELLADLEEAAEEEEGGSYGEEEEEPAIEDVQEETQLDLSGDSVKTIAKLWDSKMFAEIMMKIEEYISKQAKASEVMGPVEAAPEYRVIVDANNLTVEIENEVNIIHKFIRDKYSKRFPELESLVPNALDYIRTVKELGNSLDKCKNNENLQQILTNATIMVVSVTASTTQGQQLSEEELERLEEACDMALELNASKHRIYEYVESRMSFIAPNLSIIIGASTAAKIMGVAGGLTNLSKMPACNIMLLGAQRKTLSGFSSTSVLPHTGYIYHSDIVQSLPPDLRRKAARLVAAKCTLAARVDSFHESTEGKVGYELKDEIERKFDKWQEPPPVKQVKPLPAPLDGQRKKRGGRRYRKMKERLGLTEIRKQANRMSFGEIEEDAYQEDLGFSLGHLGKSGSGRVRQTQVNEATKARISKTLQRTLQKQSVVYGGKSTIRDRSSGTASSVAFTPLQGLEIVNPQAAEKKVAEANQKYFSSMAEFLKVKGEKSGLMST [L107V]

Variants of: B1
Details: with nt2na_human NOTCH2NLA

effect of a mutation on the interaction | Variant
with no effect | MSLADELLADLEEAAEEEEGGSYGEEEEEPAIEDVQEETQLDLSGDSVKTIAKLWDSKMFAEIMMKIEEYISKQAKASEVMGPVEAAPEYRVIVDANNLTVEIENEVNIIHKFIRDKYSKRFPELESLVPNALDYIRTVKELGNSLDKCKNNENLQQILTNATIMVVSVTASTTQGQQLSEEELERLEEACDMALELNASKHRIYEYVESRMSFIAPNLSIIIGASTAAKIMGVAGGLTNLSKMPACNIMLLGAQRKTLSGFSSTSVLPHTGYIYHSDIVQSLPPDLRRKAARLVAAKCTLAARVDSFHESTEGKVGYELKDEIERKFDKWQEPPPVKQVKPLPAPLDGQRKKRGGRRYRKMKERLGLTEIRKQANRMSFGEIEEDAYQEDLGFSLGHLGKSGSGRVRQTQVNEATKARISKTLQRTLQKQSVVYGGKSTIRDRSSGTASSVAFTPLQGLEIVNPQAAEKKVAEANQKYFSSMAEFLKVKGEKSGLMST [L107V]

Variants of: B1
Details: with tfp11_human TFIP11, Q9UBB9
Chain of tfp11_human TFIP11, Q9UBB9 (Q9UBB9 whole entry): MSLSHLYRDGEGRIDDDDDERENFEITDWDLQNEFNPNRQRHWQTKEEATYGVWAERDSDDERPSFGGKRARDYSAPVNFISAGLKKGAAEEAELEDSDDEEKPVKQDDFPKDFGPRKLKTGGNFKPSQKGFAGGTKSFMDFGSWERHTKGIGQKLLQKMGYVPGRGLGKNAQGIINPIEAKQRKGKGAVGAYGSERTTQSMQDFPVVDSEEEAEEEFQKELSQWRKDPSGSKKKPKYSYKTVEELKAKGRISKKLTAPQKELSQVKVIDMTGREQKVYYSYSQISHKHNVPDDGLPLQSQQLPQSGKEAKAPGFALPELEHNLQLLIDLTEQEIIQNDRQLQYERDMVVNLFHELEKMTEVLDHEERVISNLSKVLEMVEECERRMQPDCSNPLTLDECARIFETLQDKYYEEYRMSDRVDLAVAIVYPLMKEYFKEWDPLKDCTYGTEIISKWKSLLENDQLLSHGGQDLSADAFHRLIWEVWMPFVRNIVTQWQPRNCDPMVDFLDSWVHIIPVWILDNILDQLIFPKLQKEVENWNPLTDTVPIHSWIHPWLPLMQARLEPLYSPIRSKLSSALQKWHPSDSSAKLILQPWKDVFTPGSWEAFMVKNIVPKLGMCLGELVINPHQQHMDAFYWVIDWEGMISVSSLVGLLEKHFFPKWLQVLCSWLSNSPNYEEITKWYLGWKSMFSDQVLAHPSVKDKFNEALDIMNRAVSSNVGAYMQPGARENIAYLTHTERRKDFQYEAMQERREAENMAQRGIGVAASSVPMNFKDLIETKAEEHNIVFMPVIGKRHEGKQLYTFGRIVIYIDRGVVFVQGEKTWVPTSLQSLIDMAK

effect of a mutation on the interaction | Variant
with no effect | MSLADELLADLEEAAEEEEGGSYGEEEEEPAIEDVQEETQLDLSGDSVKTIAKLWDSKMFAEIMMKIEEYISKQAKASEVMGPVEAAPEYRVIVDANNLTVEIENEVNIIHKFIRDKYSKRFPELESLVPNALDYIRTVKELGNSLDKCKNNENLQQILTNATIMVVSVTASTTQGQQLSEEELERLEEACDMALELNASKHRIYEYVESRMSFIAPNLSIIIGASTAAKIMGVAGGLTNLSKMPACNIMLLGAQRKTLSGFSSTSVLPHTGYIYHSDIVQSLPPDLRRKAARLVAAKCTLAARVDSFHESTEGKVGYELKDEIERKFDKWQEPPPVKQVKPLPAPLDGQRKKRGGRRYRKMKERLGLTEIRKQANRMSFGEIEEDAYQEDLGFSLGHLGKSGSGRVRQTQVNEATKARISKTLQRTLQKQSVVYGGKSTIRDRSSGTASSVAFTPLQGLEIVNPQAAEKKVAEANQKYFSSMAEFLKVKGEKSGLMST [L107V]

Variants of: B1
Details: with goga2_human GOLGA2, Q08379
Chain of goga2_human GOLGA2, Q08379 (Q08379 whole entry): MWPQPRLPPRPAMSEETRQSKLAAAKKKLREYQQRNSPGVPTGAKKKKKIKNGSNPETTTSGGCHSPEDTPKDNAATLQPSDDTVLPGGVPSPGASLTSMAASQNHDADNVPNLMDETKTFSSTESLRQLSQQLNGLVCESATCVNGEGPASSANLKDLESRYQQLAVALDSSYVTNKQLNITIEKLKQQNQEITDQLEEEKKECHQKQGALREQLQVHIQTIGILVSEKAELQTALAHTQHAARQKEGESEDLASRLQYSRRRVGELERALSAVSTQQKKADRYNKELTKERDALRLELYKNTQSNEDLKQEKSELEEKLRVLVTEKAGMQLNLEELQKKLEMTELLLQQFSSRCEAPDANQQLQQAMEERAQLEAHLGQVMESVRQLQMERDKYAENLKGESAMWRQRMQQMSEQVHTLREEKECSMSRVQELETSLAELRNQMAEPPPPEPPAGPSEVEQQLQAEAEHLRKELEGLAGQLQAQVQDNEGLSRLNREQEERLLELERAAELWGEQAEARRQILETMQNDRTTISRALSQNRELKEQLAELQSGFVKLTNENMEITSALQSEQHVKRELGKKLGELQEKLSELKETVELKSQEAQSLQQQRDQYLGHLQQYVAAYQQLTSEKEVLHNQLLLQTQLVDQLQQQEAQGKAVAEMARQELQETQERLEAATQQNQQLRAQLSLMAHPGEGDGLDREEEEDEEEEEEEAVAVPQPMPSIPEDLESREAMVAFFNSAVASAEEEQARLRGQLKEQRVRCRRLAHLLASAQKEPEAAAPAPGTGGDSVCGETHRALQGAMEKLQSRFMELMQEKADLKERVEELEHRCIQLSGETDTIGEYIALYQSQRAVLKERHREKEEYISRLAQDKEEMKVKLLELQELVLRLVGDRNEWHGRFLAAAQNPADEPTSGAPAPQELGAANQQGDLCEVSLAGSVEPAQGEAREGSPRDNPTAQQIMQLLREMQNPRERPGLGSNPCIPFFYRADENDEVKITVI

effect of a mutation on the interaction | Variant
with no effect | MSLADELLADLEEAAEEEEGGSYGEEEEEPAIEDVQEETQLDLSGDSVKTIAKLWDSKMFAEIMMKIEEYISKQAKASEVMGPVEAAPEYRVIVDANNLTVEIENEVNIIHKFIRDKYSKRFPELESLVPNALDYIRTVKELGNSLDKCKNNENLQQILTNATIMVVSVTASTTQGQQLSEEELERLEEACDMALELNASKHRIYEYVESRMSFIAPNLSIIIGASTAAKIMGVAGGLTNLSKMPACNIMLLGAQRKTLSGFSSTSVLPHTGYIYHSDIVQSLPPDLRRKAARLVAAKCTLAARVDSFHESTEGKVGYELKDEIERKFDKWQEPPPVKQVKPLPAPLDGQRKKRGGRRYRKMKERLGLTEIRKQANRMSFGEIEEDAYQEDLGFSLGHLGKSGSGRVRQTQVNEATKARISKTLQRTLQKQSVVYGGKSTIRDRSSGTASSVAFTPLQGLEIVNPQAAEKKVAEANQKYFSSMAEFLKVKGEKSGLMST [L107V]

Variants of: B1
Details: with jkip2_human JAKMIP2, Q96AA8
Chain of jkip2_human JAKMIP2, Q96AA8 (Q96AA8 whole entry): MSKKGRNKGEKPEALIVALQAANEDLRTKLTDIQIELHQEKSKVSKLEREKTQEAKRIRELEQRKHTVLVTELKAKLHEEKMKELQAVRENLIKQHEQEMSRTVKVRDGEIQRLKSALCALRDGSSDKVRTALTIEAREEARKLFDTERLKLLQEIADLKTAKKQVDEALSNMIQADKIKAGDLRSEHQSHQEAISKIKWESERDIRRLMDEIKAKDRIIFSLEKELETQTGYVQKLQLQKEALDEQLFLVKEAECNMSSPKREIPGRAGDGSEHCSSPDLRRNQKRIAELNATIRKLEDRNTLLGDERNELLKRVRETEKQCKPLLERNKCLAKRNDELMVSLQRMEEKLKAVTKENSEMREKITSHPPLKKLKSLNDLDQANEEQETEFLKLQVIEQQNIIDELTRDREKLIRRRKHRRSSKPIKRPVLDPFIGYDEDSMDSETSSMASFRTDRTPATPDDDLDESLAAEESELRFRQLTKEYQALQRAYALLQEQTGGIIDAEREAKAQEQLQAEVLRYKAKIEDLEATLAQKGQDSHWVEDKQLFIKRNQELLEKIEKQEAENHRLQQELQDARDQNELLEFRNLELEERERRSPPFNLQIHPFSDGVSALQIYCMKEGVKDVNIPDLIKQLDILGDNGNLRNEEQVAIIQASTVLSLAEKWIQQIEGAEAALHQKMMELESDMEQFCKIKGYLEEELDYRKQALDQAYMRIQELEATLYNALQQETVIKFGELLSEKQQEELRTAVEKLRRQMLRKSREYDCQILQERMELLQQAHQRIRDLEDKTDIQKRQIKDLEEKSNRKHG

effect of a mutation on the interaction | Variant
with no effect | MSLADELLADLEEAAEEEEGGSYGEEEEEPAIEDVQEETQLDLSGDSVKTIAKLWDSKMFAEIMMKIEEYISKQAKASEVMGPVEAAPEYRVIVDANNLTVEIENEVNIIHKFIRDKYSKRFPELESLVPNALDYIRTVKELGNSLDKCKNNENLQQILTNATIMVVSVTASTTQGQQLSEEELERLEEACDMALELNASKHRIYEYVESRMSFIAPNLSIIIGASTAAKIMGVAGGLTNLSKMPACNIMLLGAQRKTLSGFSSTSVLPHTGYIYHSDIVQSLPPDLRRKAARLVAAKCTLAARVDSFHESTEGKVGYELKDEIERKFDKWQEPPPVKQVKPLPAPLDGQRKKRGGRRYRKMKERLGLTEIRKQANRMSFGEIEEDAYQEDLGFSLGHLGKSGSGRVRQTQVNEATKARISKTLQRTLQKQSVVYGGKSTIRDRSSGTASSVAFTPLQGLEIVNPQAAEKKVAEANQKYFSSMAEFLKVKGEKSGLMST [L107V]

Variants of: B1
Details: with ccd33_human CCDC33, Q8N5R6

effect of a mutation on the interaction | Variant
with no effect | MSLADELLADLEEAAEEEEGGSYGEEEEEPAIEDVQEETQLDLSGDSVKTIAKLWDSKMFAEIMMKIEEYISKQAKASEVMGPVEAAPEYRVIVDANNLTVEIENEVNIIHKFIRDKYSKRFPELESLVPNALDYIRTVKELGNSLDKCKNNENLQQILTNATIMVVSVTASTTQGQQLSEEELERLEEACDMALELNASKHRIYEYVESRMSFIAPNLSIIIGASTAAKIMGVAGGLTNLSKMPACNIMLLGAQRKTLSGFSSTSVLPHTGYIYHSDIVQSLPPDLRRKAARLVAAKCTLAARVDSFHESTEGKVGYELKDEIERKFDKWQEPPPVKQVKPLPAPLDGQRKKRGGRRYRKMKERLGLTEIRKQANRMSFGEIEEDAYQEDLGFSLGHLGKSGSGRVRQTQVNEATKARISKTLQRTLQKQSVVYGGKSTIRDRSSGTASSVAFTPLQGLEIVNPQAAEKKVAEANQKYFSSMAEFLKVKGEKSGLMST [L107V]

Variants of: B1
Details: with zn417_human ZNF417, Q8TAU3
Chain of zn417_human ZNF417, Q8TAU3 (Q8TAU3 whole entry): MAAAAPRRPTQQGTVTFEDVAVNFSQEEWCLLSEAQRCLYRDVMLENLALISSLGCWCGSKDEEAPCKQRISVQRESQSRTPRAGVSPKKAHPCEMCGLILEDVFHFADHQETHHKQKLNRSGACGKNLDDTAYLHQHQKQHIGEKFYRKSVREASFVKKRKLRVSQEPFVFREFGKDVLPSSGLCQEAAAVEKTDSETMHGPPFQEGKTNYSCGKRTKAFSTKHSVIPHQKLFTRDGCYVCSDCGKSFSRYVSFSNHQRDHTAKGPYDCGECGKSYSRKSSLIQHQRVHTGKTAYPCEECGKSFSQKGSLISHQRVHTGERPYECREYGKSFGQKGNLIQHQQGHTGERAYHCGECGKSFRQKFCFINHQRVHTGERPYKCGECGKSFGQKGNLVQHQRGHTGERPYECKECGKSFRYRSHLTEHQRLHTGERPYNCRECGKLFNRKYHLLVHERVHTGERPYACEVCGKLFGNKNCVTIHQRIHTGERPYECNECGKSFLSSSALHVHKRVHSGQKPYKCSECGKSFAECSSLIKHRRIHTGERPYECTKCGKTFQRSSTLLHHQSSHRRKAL

effect of a mutation on the interaction | Variant
with no effect | MSLADELLADLEEAAEEEEGGSYGEEEEEPAIEDVQEETQLDLSGDSVKTIAKLWDSKMFAEIMMKIEEYISKQAKASEVMGPVEAAPEYRVIVDANNLTVEIENEVNIIHKFIRDKYSKRFPELESLVPNALDYIRTVKELGNSLDKCKNNENLQQILTNATIMVVSVTASTTQGQQLSEEELERLEEACDMALELNASKHRIYEYVESRMSFIAPNLSIIIGASTAAKIMGVAGGLTNLSKMPACNIMLLGAQRKTLSGFSSTSVLPHTGYIYHSDIVQSLPPDLRRKAARLVAAKCTLAARVDSFHESTEGKVGYELKDEIERKFDKWQEPPPVKQVKPLPAPLDGQRKKRGGRRYRKMKERLGLTEIRKQANRMSFGEIEEDAYQEDLGFSLGHLGKSGSGRVRQTQVNEATKARISKTLQRTLQKQSVVYGGKSTIRDRSSGTASSVAFTPLQGLEIVNPQAAEKKVAEANQKYFSSMAEFLKVKGEKSGLMST [L107V]

Variants of: B1
Details: with MTUS2, Q5JR59-3
Chain of MTUS2, Q5JR59-3 (Q5JR59 other isoform, or with tags, fused parts or gaps): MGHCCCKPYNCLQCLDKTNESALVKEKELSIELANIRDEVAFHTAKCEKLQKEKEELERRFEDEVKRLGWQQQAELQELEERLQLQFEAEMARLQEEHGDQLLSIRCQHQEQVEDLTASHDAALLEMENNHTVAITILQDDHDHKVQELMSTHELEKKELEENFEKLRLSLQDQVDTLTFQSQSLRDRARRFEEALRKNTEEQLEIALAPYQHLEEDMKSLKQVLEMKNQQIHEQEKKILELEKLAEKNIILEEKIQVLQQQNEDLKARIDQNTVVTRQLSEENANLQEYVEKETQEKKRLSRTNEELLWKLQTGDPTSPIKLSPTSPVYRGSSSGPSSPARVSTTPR

effect of a mutation on the interaction | Variant
with no effect | MSLADELLADLEEAAEEEEGGSYGEEEEEPAIEDVQEETQLDLSGDSVKTIAKLWDSKMFAEIMMKIEEYISKQAKASEVMGPVEAAPEYRVIVDANNLTVEIENEVNIIHKFIRDKYSKRFPELESLVPNALDYIRTVKELGNSLDKCKNNENLQQILTNATIMVVSVTASTTQGQQLSEEELERLEEACDMALELNASKHRIYEYVESRMSFIAPNLSIIIGASTAAKIMGVAGGLTNLSKMPACNIMLLGAQRKTLSGFSSTSVLPHTGYIYHSDIVQSLPPDLRRKAARLVAAKCTLAARVDSFHESTEGKVGYELKDEIERKFDKWQEPPPVKQVKPLPAPLDGQRKKRGGRRYRKMKERLGLTEIRKQANRMSFGEIEEDAYQEDLGFSLGHLGKSGSGRVRQTQVNEATKARISKTLQRTLQKQSVVYGGKSTIRDRSSGTASSVAFTPLQGLEIVNPQAAEKKVAEANQKYFSSMAEFLKVKGEKSGLMST [L107V]
